Data from US20260242478A1 (published 2026).
Where no end group is shown, it is not given here.

Legend:
[1] = molecular target: T1, Anti-PSMA Fab (SEQ ID NOs: 19, 20); test: phage ELISA; PSMA Fab on plate pre-incubated with PSMA antigen as competitor, anti-M13-HRP detection;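 further: clonal phage from crude supernatants added without washing to wells preblocked with or without PSMA antigen, washed, bound phage read out by ELISA with HRP-linked anti-M13 antibody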
T1 construct: Biotinylated and captured on neutravidin coated plates in the phage ELISA; also called 006 PSMA Fab
Description: (§1) Clonal phage were harvested as crude supernatants and screened via standard ELISAs. […] Prior to the addition of clonal phage. wells were incubated with blocking buffer and PSMA antigen or blocking buffer alone. Without washing or aspirating, clonal phage supernatants were then added to the wells and incubated for a short time. Wells were then washed followed by detection of bound phage using a horse radish conjugated anti-M13 antibody.

[2] = molecular target: T1, Anti-PSMA Fab (SEQ ID NOs: 19, 20); test: phage ELISA; biotinylated PSMA Fab on neutravidin plate, clonal phage supernatant, anti-M13-HRP detection;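 further: wells were preincubated with blocking buffer containing PSMA antigen or with blocking buffer only, then phage supernatant was added without washing for a brief incubation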
Description: as §1

[3] = molecular target: T2, Anti-PSMA Fab (SEQ ID NOs: 19, 20); test: phage ELISA; PSMA Fab on plate pre-incubated with PSMA antigen as competitor, anti-M13-HRP detection; remark: listed apart in the source;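 further: clonal phage from crude supernatants added without washing to wells preblocked with or without PSMA antigen, washed, bound phage read out by ELISA with HRP-linked anti-M13 antibody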
T2 construct: Biotinylated and captured on neutravidin coated plates in the phage ELISA; also called 006 PSMA Fab
Description: as §1

[4] = molecular target: T2, Anti-PSMA Fab (SEQ ID NOs: 19, 20); test: phage ELISA; biotinylated PSMA Fab on neutravidin plate, bound phage detected with anti-M13-HRP;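 further: crude clonal phage supernatants added, without a wash, to wells pretreated with PSMA antigen in blocking buffer or with blocking buffer only, then briefly incubated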
Description: as §1

| Binder | Phage binding ELISA, Anti-PSMA Fab signal in the presence of PSMA [1] | Phage binding ELISA, Anti-PSMA Fab signal [2] | Phage binding ELISA, Anti-PSMA Fab signal in the presence of PSMA [3] | Phage binding ELISA, Anti-PSMA Fab signal [4] |
| --- | --- | --- | --- | --- |
| GSNWCKPAWMCEIM (tested as crude phage supernatant) [Phage-1996] | 0.0723 | 1.86 |  |  |
| EVKWCTPPWMCMFD (tested as crude phage supernatant) [Phage-1993] | 0.073 | 1.86 |  |  |
| FDKWCIPTWMCELV (tested as crude phage supernatant) [Phage-1994] | 0.145 | 1.86 |  |  |
| MGKWCIPPWMCVVD (tested as crude phage supernatant) [Phage-1995] | 0.123 | 1.86 |  |  |
| THNWCTPQWMCDGF (Tested as clonal phage supernatant, with the peptide fused to pIII of the bacteriophage) [Phage-2210] |  |  | 0.0628 | 1.6 |
| ALHWCIPEWMCSSM (Tested as clonal phage supernatant, with the peptide fused to pIII of the bacteriophage) [Phage-2208] |  |  | 0.103 | 1.61 |
| QDHWCVPQWMCEML (Tested as clonal phage supernatant, with the peptide fused to pIII of the bacteriophage) [Phage-2209] |  |  | 0.07 | 1.61 |
| EPKLCTPTWMCIGF (tested as crude phage supernatant) [Phage-1989] | 0.118 | 1.87 |  |  |
| LDNWCRPLWMCTGF (tested as crude phage supernatant) [Phage-1988] | 0.0836 | 1.87 |  |  |
| PVKWCIPDWMCAYL (cysteine pairing not given here; also: displayed as fusion to phage pIII, tested as crude phage supernatant) [Phage-1992] | 0.115 | 1.86 |  |  |
| LEKWCIPAWMCAVL (cysteine pairing not given here; also: fused to pIII of bacteriophage, Tested as clonal phage supernatant, with the peptide fused to pIII of the bacteriophage) [Phage-2206] |  |  | 0.078 | 1.61 |
| LMKWCIPEWMCVDS (tested as crude phage supernatant) [Phage-1990] | 0.0631 | 1.87 |  |  |
| PTKWCIPEWMCSVI (Tested as clonal phage supernatant, with the peptide fused to pIII of the bacteriophage) [Phage-2207] |  |  | 0.0587 | 1.61 |
| VEKWCTPPWMCAGW (cysteine pairing not given here; also: displayed as fusion to phage pIII, tested as crude phage supernatant) [Phage-1987] | 0.0659 | 1.87 |  |  |
| LVKWCTPSWMCINL (tested as crude phage supernatant) [Phage-1991] | 0.0883 | 1.87 |  |  |
| PGKWCIPAWMCSLV (Tested as clonal phage supernatant, with the peptide fused to pIII of the bacteriophage) [Phage-2211] |  |  | 0.157 | 1.6 |
